In article doi:10.1101/663153 (bioRxiv, 2019):

Target: T1, CysLTR2-GFP10-1D4 L129Q (human, UniProt Q9NS75 1-346, L129Q)
T1 sequence (looked up): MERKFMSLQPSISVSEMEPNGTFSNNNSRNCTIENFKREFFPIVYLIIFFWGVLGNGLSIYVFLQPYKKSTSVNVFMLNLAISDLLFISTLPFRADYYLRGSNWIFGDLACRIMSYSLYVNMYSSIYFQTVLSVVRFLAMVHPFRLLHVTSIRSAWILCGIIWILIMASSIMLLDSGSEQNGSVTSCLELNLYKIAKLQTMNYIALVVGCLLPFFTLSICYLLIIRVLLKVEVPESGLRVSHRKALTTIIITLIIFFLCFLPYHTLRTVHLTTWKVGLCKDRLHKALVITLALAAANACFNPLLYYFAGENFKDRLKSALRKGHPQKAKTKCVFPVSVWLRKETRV
Test: FRET or BRET

B1: β-Arrestin1-RLuc3 (natural protein, UniProt P49407 1-418, looked up)
chain: MGDKGTRVFKKASPNGKLTVYLGKRDFVDHIDLVDPVDGVVLVDPEYLKERRVYVTLTCAFRYGREDLDVLGLTFRKDLFVANVQSFPPAPEDKKPLTRLQERLIKKLGEHAYPFTFEIPPNLPCSVTLQPGPEDTGKACGVDYEVKAFCAENLEEKIHKRNSVRLVIRKVQYAPERPGPQPTAETTRQFLMSDKPLHLEASLDKEIYYHGEPISVNVHVTNNTNKTVKKIKISVRQYADICLFNTAQYKCPVAMEEADDTVAPSSTFCKVYTLTPFLANNREKRGLALDGKLKHEDTNLASSTLLREGANREILGIIVSYKVKVKLVVSRGGLLGDLASSDVAVELPFTLMHPKPKEEPPHREVPENETPVDTNLIELDTNDDDIVFEDFARQRLKGMKDDKEEEEDGTGSPQLNNR
  ligand-independent net BRET^2 ratio: 0.00151 ± 0.0004
